Reference: publication PMC3290569, “Macro-to-Micro Structural Proteomics: Native Source Proteins for High-Throughput Crystallization” (PLoS ONE, 2012)

B1: Dihydrodipicolinate synthase (enzyme, Escherichia coli, UniProt P0A6L2 1-292, looked up)
chain: MFTGSIVAIVTPMDEKGNVCRASLKKLIDYHVASGTSAIVSVGTTGESATLNHDEHADVVMMTLDLADGRIPVIAGTGANATAEAISLTQRFNDSGIVGCLTVTPYYNRPSQEGLYQHFKAIAEHTDLPQILYNVPSRTGCDLLPETVGRLAKVKNIIGIKEATGNLTRVNQIKELVSDDFVLLSGDDASALDFMQLGGHGVISVTANVAARDMAQMCKLAAEGHFAEARVINQRLMPLHNKLFVEPNPIPVKWACKELGLVATDTLRLPMTPITDSGRETVRAALKHAGLL
notes: dihydrodipicolinate synthase, Escherichia coli, native source protein; identified with PDB 1DHP; the PDB entry is the previously deposited structure that identified the protein; the crystallised protein is the native one; source: purified from E. coli DH5α cells (whole-proteome fractionation)
B2: Inorganic pyrophosphatase (enzyme, Escherichia coli, UniProt P0A7A9 1-176, looked up)
chain: MSLLNVPAGKDLPEDIYVVIEIPANADPIKYEIDKESGALFVDRFMSTAMFYPCNYGYINHTLSLDGDPVDVLVPTPYPLQPGSVIRCRPVGVLKMTDEAGEDAKLVAVPHSKLSKEYDHIKDVNDLPELLKAQIAHFFEHYKDLEKGKWVKVEGWENAEAAKAEIVASFERAKNK
notes: inorganic pyrophosphatase, Escherichia coli, native source protein; identified with PDB 1IPW; the PDB entry is the previously deposited structure that identified the protein; the crystallised protein is the native one; source: purified from E. coli DH5α cells (whole-proteome fractionation)
B3: Cystathione gamma-synthase (enzyme, Escherichia coli, UniProt P00935 1-386, looked up)
chain: MTRKQATIAVRSGLNDDEQYGCVVPPIHLSSTYNFTGFNEPRAHDYSRRGNPTRDVVQRALAELEGGAGAVLTNTGMSAIHLVTTVFLKPGDLLVAPHDCYGGSYRLFDSLAKRGCYRVLFVDQGDEQALRAALAEKPKLVLVESPSNPLLRVVDIAKICHLAREVGAVSVVDNTFLSPALQNPLALGADLVLHSCTKYLNGHSDVVAGVVIAKDPDVVTELAWWANNIGVTGGAFDSYLLLRGLRTLVPRMELAQRNAQAIVKYLQTQPLVKKLYHPSLPENQGHEIAARQQKGFGAMLSFELDGDEQTLRRFLGGLSLFTLAESLGGVESLISHAATMTHAGMAPEARAAAGISETLLRISTGIEDGEDLIADLENGFRAANKG
notes: cystathionine gamma-synthase (printed: Cystathione gamma-synthase), Escherichia coli, native source protein; identified with PDB 1CS1; the PDB entry is the previously deposited structure that identified the protein; the crystallised protein is the native one; source: purified from E. coli DH5α cells (whole-proteome fractionation)
B4: Ariginosuccinate lyase (enzyme, Escherichia coli, UniProt P11447 1-457, looked up)
chain: MALWGGRFTQAADQRFKQFNDSLRFDYRLAEQDIVGSVAWSKALVTVGVLTAEEQAQLEEALNVLLEDVRARPQQILESDAEDIHSWVEGKLIDKVGQLGKKLHTGRSRNDQVATDLKLWCKDTVSELLTANRQLQSALVETAQNNQDAVMPGYTHLQRAQPVTFAHWCLAYVEMLARDESRLQDALKRLDVSPLGCGALAGTAYEIDREQLAGWLGFASATRNSLDSVSDRDHVLELLSAAAIGMVHLSRFAEDLIFFNTGEAGFVELSDRVTSGSSLMPQKKNPDALELIRGKCGRVQGALTGMMMTLKGLPLAYNKDMQEDKEGLFDALDTWLDCLHMAALVLDGIQVKRPRCQEAAQQGYANATELADYLVAKGVPFREAHHIVGEAVVEAIRQGKPLEDLPLSELQKFSQVIDEDVYPILSLQSCLDKRAAKGGVSPQQVAQAIAFAQARLG
notes: argininosuccinate lyase (printed: Ariginosuccinate lyase), Escherichia coli, native source protein; identified with PDB 1TJ7; the PDB entry is the previously deposited structure that identified the protein; the crystallised protein is the native one; also called Arginosuccinate lyase; source: purified from E. coli DH5α cells (whole-proteome fractionation)
B5: Adenylosuccinate synthetase (enzyme, Escherichia coli, UniProt P0A7D4 1-432, looked up)
chain: MGNNVVVLGTQWGDEGKGKIVDLLTERAKYVVRYQGGHNAGHTLVINGEKTVLHLIPSGILRENVTSIIGNGVVLSPAALMKEMKELEDRGIPVRERLLLSEACPLILDYHVALDNAREKARGAKAIGTTGRGIGPAYEDKVARRGLRVGDLFDKETFAEKLKEVMEYHNFQLVNYYKAEAVDYQKVLDDTMAVADILTSMVVDVSDLLDQARQRGDFVMFEGAQGTLLDIDHGTYPYVTSSNTTAGGVATGSGLGPRYVDYVLGILKAYSTRVGAGPFPTELFDETGEFLCKQGNEFGATTGRRRRTGWLDTVAVRRAVQLNSLSGFCLTKLDVLDGLKEVKLCVAYRMPDGREVTTTPLAADDWKGVEPIYETMPGWSESTFGVKDRSGLPQAALNYIKRIEELTGVPIDIISTGPDRTETMILRDPFDA
notes: adenylosuccinate synthetase, Escherichia coli, native source protein; identified with PDB 1CG1; the PDB entry is the previously deposited structure that identified the protein; the crystallised protein is the native one; source: purified from E. coli DH5α cells (whole-proteome fractionation)
B6: ycaC gene product (natural protein, Escherichia coli, UniProt P21367 1-208, looked up)
chain: MTKPYVRLDKNDAAVLLVDHQAGLLSLVRDIEPDKFKNNVLALGDLAKYFNLPTILTTSFETGPNGPLVPELKAQFPDTPYIARPGNINAWDNEDFVKAVKATGKKQLIIAGVVTEVCVAFPALSAIEEGFDVFVVTDASGTFNEITRHSAWDRLSQAGAQLMTWFGVACELHRDWRNDIEGLATLFSNHIPDYRNLMTSYDTLTKQK
notes: ycaC gene product, Escherichia coli, native source protein; identified with PDB 1YAC; the PDB entry is the previously deposited structure that identified the protein; the crystallised protein is the native one; source: purified from E. coli DH5α cells (whole-proteome fractionation)
B7: Catalase HPII (enzyme, Escherichia coli, UniProt P21179 1-753, looked up)
chain: MSQHNEKNPHQHQSPLHDSSEAKPGMDSLAPEDGSHRPAAEPTPPGAQPTAPGSLKAPDTRNEKLNSLEDVRKGSENYALTTNQGVRIADDQNSLRAGSRGPTLLEDFILREKITHFDHERIPERIVHARGSAAHGYFQPYKSLSDITKADFLSDPNKITPVFVRFSTVQGGAGSADTVRDIRGFATKFYTEEGIFDLVGNNTPIFFIQDAHKFPDFVHAVKPEPHWAIPQGQSAHDTFWDYVSLQPETLHNVMWAMSDRGIPRSYRTMEGFGIHTFRLINAEGKATFVRFHWKPLAGKASLVWDEAQKLTGRDPDFHRRELWEAIEAGDFPEYELGFQLIPEEDEFKFDFDLLDPTKLIPEELVPVQRVGKMVLNRNPDNFFAENEQAAFHPGHIVPGLDFTNDPLLQGRLFSYTDTQISRLGGPNFHEIPINRPTCPYHNFQRDGMHRMGIDTNPANYEPNSINDNWPRETPPGPKRGGFESYQERVEGNKVRERSPSFGEYYSHPRLFWLSQTPFEQRHIVDGFSFELSKVVRPYIRERVVDQLAHIDLTLAQAVAKNLGIELTDDQLNITPPPDVNGLKKDPSLSLYAIPDGDVKGRVVAILLNDEVRSADLLAILKALKAKGVHAKLLYSRMGEVTADDGTVLPIAATFAGAPSLTVDAVIVPCGNIADIADNGDANYYLMEAYKHLKPIALAGDARKFKATIKIADQGEEGIVEADSADGSFMDELLTLMAAHRVWSRIPKIDKIPA
notes: catalase HPII, Escherichia coli, native source protein; identified with PDB 1GG9; the PDB entry is the previously deposited structure that identified the protein; the crystallised protein is the native one; source: purified from E. coli DH5α cells (whole-proteome fractionation)
B8: Lysyl-tRNA synthetase (constitutive) (enzyme, Escherichia coli, UniProt P0A8N3 1-505, looked up)
chain: MSEQHAQGADAVVDLNNELKTRREKLANLREQGIAFPNDFRRDHTSDQLHAEFDGKENEELEALNIEVAVAGRMMTRRIMGKASFVTLQDVGGRIQLYVARDDLPEGVYNEQFKKWDLGDILGAKGKLFKTKTGELSIHCTELRLLTKALRPLPDKFHGLQDQEARYRQRYLDLISNDESRNTFKVRSQILSGIRQFMVNRGFMEVETPMMQVIPGGAAARPFITHHNALDLDMYLRIAPELYLKRLVVGGFERVFEINRNFRNEGISVRHNPEFTMMELYMAYADYKDLIELTESLFRTLAQDILGKTEVTYGDVTLDFGKPFEKLTMREAIKKYRPETDMADLDNFDSAKAIAESIGIHVEKSWGLGRIVTEIFEEVAEAHLIQPTFITEYPAEVSPLARRNDVNPEITDRFEFFIGGREIGNGFSELNDAEDQAQRFLDQVAAKDAGDDEAMFYDEDYVTALEHGLPPTAGLGIGIDRMVMLFTNSHTIRDVILFPAMRPVK
notes: lysyl-tRNA synthetase, constitutive form, Escherichia coli, native source protein; identified with PDB 1BBW; the PDB entry is the previously deposited structure that identified the protein; the crystallised protein is the native one; source: purified from E. coli DH5α cells (whole-proteome fractionation)
B9: Malate dehydrogenase (enzyme, Escherichia coli, UniProt P61889 1-312, looked up)
chain: MKVAVLGAAGGIGQALALLLKTQLPSGSELSLYDIAPVTPGVAVDLSHIPTAVKIKGFSGEDATPALEGADVVLISAGVARKPGMDRSDLFNVNAGIVKNLVQQVAKTCPKACIGIITNPVNTTVAIAAEVLKKAGVYDKNKLFGVTTLDIIRSNTFVAELKGKQPGEVEVPVIGGHSGVTILPLLSQVPGVSFTEQEVADLTKRIQNAGTEVVEAKAGGGSATLSMGQAAARFGLSLVRALQGEQGVVECAYVEGDGQYARFFSQPLLLGKNGVEERKSIGTLSAFEQNALEGMLDTLKKDIALGEEFVNK
notes: malate dehydrogenase, Escherichia coli, native source protein; identified with PDB 2PWZ; the PDB entry is the previously deposited structure that identified the protein; the crystallised protein is the native one; source: purified from E. coli DH5α cells (whole-proteome fractionation)
B10: Citrate synthase (enzyme, Escherichia coli, UniProt P0ABH7 1-427, looked up)
chain: MADTKAKLTLNGDTAVELDVLKGTLGQDVIDIRTLGSKGVFTFDPGFTSTASCESKITFIDGDEGILLHRGFPIDQLATDSNYLEVCYILLNGEKPTQEQYDEFKTTVTRHTMIHEQITRLFHAFRRDSHPMAVMCGITGALAAFYHDSLDVNNPRHREIAAFRLLSKMPTMAAMCYKYSIGQPFVYPRNDLSYAGNFLNMMFSTPCEPYEVNPILERAMDRILILHADHEQNASTSTVRTAGSSGANPFACIAAGIASLWGPAHGGANEAALKMLEEISSVKHIPEFVRRAKDKNDSFRLMGFGHRVYKNYDPRATVMRETCHEVLKELGTKDDLLEVAMELENIALNDPYFIEKKLYPNVDFYSGIILKAMGIPSSMFTVIFAMARTVGWIAHWSEMHSDGMKIARPRQLYTGYEKRDFKSDIKR
notes: citrate synthase, Escherichia coli, native source protein; identified with PDB 1NXG; the PDB entry is the previously deposited structure that identified the protein; the crystallised protein is the native one; source: purified from E. coli DH5α cells (whole-proteome fractionation)

Target: the molecule itself
Experiment: crystal structure; native source E. coli proteins already in the PDB, identified and solved by brute-force molecular replacement, not refined except to confirm the solution; oligomer seen in the crystal

Protein | binding result
B1 | binds
B2 | binds
B3 | binds
B4 | binds
B5 | binds
B6 | binds
B7 | binds
B8 | binds
B9 | binds
B10 | binds
